Laboratory results: patent US20250188166A1 (BRIGHT PEAK THERAPEUTICS, published 2025)
Like-named read-outs stand apart in the source and are kept apart here.

Legend:
[1] = molecular target: human PD-1 on Jurkat T cells (human, UniProt Q15116 25-288); assay: cell-based or functional assay
[2] = molecular target: T1, recombinant Human Fc gamma RI/CD64 Protein (human, UniProt P12314 16-288); assay: ELISA; antibody coated, His-tagged receptor titrated
T1 construct: also called FcγRI/(CD64); human Fc gamma receptor I
Description: (§1) The interaction of the unmodified and of conjugated antibodies with human Fc gamma receptors I (FcγRI/CD64), with human Fc gamma receptors IIa (FcγRIIa/CD32a), with inhibitory human Fc gamma receptors IIb (FcγRIIb/CD32b), and with human Fc gamma receptors III FcγRIIIa/CD16 were measured by ELISA.
(§2) Briefly, Corning high-binding half-area plates (Fisher Scientific, Reinach, Switzerland) were coated overnight at 4° C. with 25 ul of unmodified and of conjugated anti-PD1 antibodies at 2.5 μg/ml in PBS. Plates were then washed four times with 100 ul of PBS-0.02% Tween20. Plates surfaces were blocked with 25 ul of PBS-0.02% Tween20-1% BSA at 37° C. during 1h. Plates were then washed four times with 100 ul of PBS-0.02% Tween20. Then twenty-five microliters of either recombinant Human Fc gamma RI/CD64 Protein (R&D systems, 1257-FC-050, CF), recombinant Human Fc gamma RIIA/CD32a (H167) Protein (R&D systems, 9595-CD-050, CF), recombinant Human Fc gamma RIIB/CD32b Avi-tag Protein (R&D systems, AVI1875-050, CF), or recombinant Human Fc gamma RIIIA/CD16a Protein (R&D systems, 4325-FC-050; CF) were added in five-fold serial dilutions ranging from 1000 nM to 0.001 nM into PBS-0.02% Tween20-0.1% BSA and incubated at 37° C. during 2h. Plates were then washed four times with 100 ul of PBS-0.02% Tween20. Twenty-five microliters of a 1/500 HRP-anti-His antibody in PBS-0.02% Tween20-0.1% BSA (R&D systems, anti-HIS-HRP Ab, #MAB050H) were added to each well and plates were incubated at Room Temperature during 1h. Plates were then washed four times with 100 ul of PBS-0.02% Tween20. Fifty microliters of TMB substrate reagent (#CL07, Merck, Buchs, Switzerland) were added to each well and incubated at 37° C. during 5 min. After 5 min at 37° C., Horseradish peroxidase reaction was stopped by adding 50 ul/well of 0.5M H2SO₄ stop solution. ELISA signal was then measured at 450 nm on an EnSpire plate reader from Perkin Elmer (Schwerzenbach, Switzerland).

[3] = molecular target: T2, recombinant Human Fc gamma RIIA/CD32a (H167) Protein (human, UniProt P12318 36-218, limits assumed); assay: as above
T2 construct: also called FcγRIIa (CD32a)
T2 sequence (looked up): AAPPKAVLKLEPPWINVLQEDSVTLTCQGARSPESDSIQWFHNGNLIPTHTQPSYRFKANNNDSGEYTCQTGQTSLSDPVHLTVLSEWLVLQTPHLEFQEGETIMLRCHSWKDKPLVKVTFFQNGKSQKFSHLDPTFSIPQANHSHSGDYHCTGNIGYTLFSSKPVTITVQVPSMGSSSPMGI
Description: as §1, §2

[4] = molecular target: T3, recombinant Human Fc gamma RIIIA/CD16a Protein (human, UniProt P08637 17-208, limits assumed); assay: as above
T3 construct: also called FcγRIIIa (CD16)
Description: as §1, §2

[5] = molecular target: T4, recombinant Human Fc gamma RIIB/CD32b Avi-tag Protein (human, UniProt P31994 46-217); assay: as above
T4 construct: also called FcγRIIb (CD32b)
T4 sequence (looked up): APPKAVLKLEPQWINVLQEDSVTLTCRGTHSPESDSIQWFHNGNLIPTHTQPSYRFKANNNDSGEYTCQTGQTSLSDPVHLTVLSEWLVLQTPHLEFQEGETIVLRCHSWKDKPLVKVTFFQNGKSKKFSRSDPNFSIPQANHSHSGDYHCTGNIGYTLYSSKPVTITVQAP
Description: as §1, §2

[6] = molecular target: T5, recombinant biotinylated human FcRn (human, UniProt P55899 24-297; P61769 21-119, limits assumed, biotinylated); assay: AlphaLISA competition at pH 6; competitor human IgG acceptor beads
T5 construct: Kit reagent; also called human neonatal Fc receptor
Description: (§3) The interaction of the unmodified and of conjugated anti-PD1 antibodies with the human neonatal Fc receptor (FcRn) at pH 6 was measured using the AlphaLISA® Human FcRn Binding Kit (AL3095C) from Perkin Elmer (Schwerzenbach, Switzerland).
(§4) After 90 min at 23° C. in the dark, AlphaLISA® signal was measured on an EnSpire plate reader (Excitation at 680 nm, Emission at 615 nm) from Perkin Elmer (Schwerzenbach, Switzerland).

[7] = molecular target: T5, recombinant biotinylated human FcRn; assay: as above; remark: listed apart in the source
Description: as §3, §4

[8] = molecular target: T1, recombinant Human Fc gamma RI/CD64 …; assay: ELISA: antibody coated (2.5 µg/ml), His-tagged recombinant human FcγRI/CD64 titrated (x-axis), anti-His-HRP/TMB, 450 nm
Description: as §1
as §2, with “Plates were then washed four times with 100 ul of PBS-0.02% Tween20. Twenty-five microliters of a 1/500 HRP-anti-His antibody in PBS-0.02% Tween20-0.1% BSA (R&D systems, anti-HIS-HRP Ab, #MAB050H) were added to each well and plates were incubated at Room Temperature during 1h. Plates were then washed four times with 100 ul of PBS-0.02% Tween20. Fifty microliters of TMB substrate reagent (#CL07, Merck, Buchs, Switzerland) were added to each well and incubated at 37° C. during 5 min. After 5 min at 37° C., Horseradish peroxidase reaction was stopped by adding 50 ul/well of 0.5M H2SO₄ stop solution.” left out

[9] = molecular target: T6, Biotinylated Recombinant Human PD-1/CD279-Fc Chimera (human, UniProt Q15116 25-167, biotinylated); assay: ELISA: antibody coated on the plate (5 µg/ml), biotinylated human PD-1-Fc titrated (x-axis, Concentration (nM)), streptavidin-HRP/TMB, 450 nm
T6 construct: Bought (Biolegend #789406); also called recombinant biotinylated human PD-1

[10] = molecular target: T5, recombinant biotinylated human FcRn; assay: AlphaLISA competition at pH 6: test antibody titrated against human IgG acceptor beads for biotinylated human FcRn on streptavidin donor beads; loss of signal
Description: as §3, §4

[11] = molecular target: T5, recombinant biotinylated human FcRn; assay: AlphaLISA competition at pH 6: test antibody titrated against human IgG acceptor beads for biotinylated human FcRn on streptavidin donor beads; normalized signal

B1: LZM-009 (antibody, human IgG4 S228P, kappa)
heavy: not shown
light: EIVLTQSPATLSLSPGERATISCRASKGVSTSGYSYLHWYQQKPGQAPRLLIYLASYLESGVPARFSGSGSGTDFTLTISSLEPEDFATYYCQHSRELPLTFGTGTKVEIKRTVAAPSVFIFPPSDEQLKSGTASVVCLLNNFYPREAKVQWKVDNALQSGNSQESVTEQDSKDSTYSLSSTLTLSKADYEKHKVYACEVTHQGLSSPVTKSFNRGEC
notes: IgG4 anti-PD-1 antibody; also called CMP2000
- EC50 (read off the curve) [1]: ~2 nM
- Kd [2]: 0.315 nM
- Kd [3]: 1350 nM
- Kd [4]: 1710 nM
- Kd [5]: 2630 nM
- Kd [6]: 6 nM
- Kd [7]: 6 nM
- EC50 (read off the curve) [8]: ~0.2 nM
- EC50 (read off the curve) [9]: ~0.03 nM
- IC50 (read off the curve) [10]: ~5 nM
- IC50 (read off the curve) [11]: ~5 nM
